For 4 molecules, IC50 results are on record in paper PMC5988292, “Crystal structures of the PH domains from Lbc family of RhoGEFs bound to activated RhoA GTPase” (Data in Brief, 2018).

B1: p115-PH (PH domain of p115RhoGEF) (domain or fragment, UniProt Q92888 647-760, looked up)
chain: KLVHEGPLTWRVTKDKAVEVHVLLLDDLLLLLQRQDERLLLKSHSRTLTPTPDGKTMLRPVLRLTSAMTREVATDHKAFYVLFTWDQEAQIYELVAQTVSERKNWCALITETAG
notes: PH domain of p115 (Lbc-family RhoGEF)
B2: PH domain from human AKAP-LbcRhoGEF (residues 2195-2333) (domain or fragment, UniProt Q12802 2195-2333, looked up)
chain: YEKKVRLNEIYTKTDSKSIMRMKSGQMFAKEDLKRKKLVRDGSVFLKNAAGRLKEVQAVLLTDILVFLQEKDQKYIFASLDQKSTVISLKKLIVREVAHEEKGLFLISMGMTDPEMVEVHASSKEERNSWIQIIQDTIN
notes: AKAP-LbcRhoGEF, human, PH domain, residues 2195-2333; also called AKAP-Lbc-PH; AKAP-LbcRhoGEF-PH
B3: PH domain from mouse p114RhoGEF (residues 302-444) (domain or fragment, UniProt Q6P9R4-1 302-444, looked up)
chain: YEKDQRLKEIAAKTDQKSSGKLKNGLTFRKEDMLQQRQLHLEGALCWKSTSGRLKDVLAVLLTDVLLLLQEKDQKYVFASVDSKPPVISLQKLIVREVANEEKAMFLISASMQGPEMYEMYTSSKEDRNIWMAHIRRAVESCP
notes: p114RhoGEF, mouse, PH domain, residues 302-444; The final model holds residues 299-444, three more at the N-terminus than the stated construct; also called p114-PH; p114RhoGEF-PH
B4: PRG-PH (non-fluorescent PH domain of PDZRhoGEF) (domain or fragment, UniProt O15085 924-1085, looked up)
chain: VKQTENRHRLEGYQKRLDATALERASNPLAAEFKSLDLTTRKMIHEGPLTWRISKDKTLDLHVLLLEDLLVLLQKQDEKLLLKCHSKTAVGSSDSKQTFSPVLKLNAVLIRSVATDKRAFFIICTSKLGPPQIYELVALTSSDKNTWMELLEEAVRNATRHP
notes: PH domain of PDZRhoGEF (PRG); also called PDZRhoGEF-PH

Several values for one entry are separate records, joined by “and”; a condition that tells them apart may be missing. Equal values may be shown once.

In this experiment the target is T1, YFP-RhoA·GTPγS (UniProt P61586 1-193).
T1 construct: RhoA; Loaded with GTPγS
The experiment can be described thus: FRET or BRET; competition: non-fluorescent PH domain titrated into 1 μM YFP-RhoA·GTPγS + 1 μM CFP-PRG-PH; 20 mM NaHEPES pH 7.5, 1 mM EDTA, 1 mM DTT, 100 mM NaCl, 5 mM MgCl2; 25 °C; ratio 525/475 nm. Particulars: both partners purified.
On to B1, for which the IC50 is more than 150 µM.

Consider B2, for which the IC50 was approximately 20 µM.

In the case of B3, the IC50 was > 60 µM and ~60 µM.

B4: the IC50 stood at 3 µM.

For orientation: IC50 means the concentration at which inhibition is half-maximal.
